Measurements: the supplement of paper PMC10724198
± gives the standard deviation of the averaged measurements.

Tested on: Saccharomyces cerevisiae
Test: protein stability index of tFT-peptide fusion (C-terminal peptide) (PSI (0-1 scale)); higher = more stable (slower turnover)
Settings: genetic background: wild type; temperature: 30 C
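Note: PSI is a weighted mean of sequencing reads over stability bins, variants kept only with over 10 reads, mCherry proximal and sfGFP distal, peptide attached via GGGS linker.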

Sequence | protein stability index
LESSAKSRTMVL | 0.721 ± 0.014
GCFLDLVFRSRI | 0.668 ± 0.0074
PAPPPRRPPAPP | 0.689 ± 0.017
PLPPRLPSPPSS | 0.742 ± 0.044
VDTGMAAGLTFG | 0.685 ± 0.034
GAGWCDGGRGGV | 0.6747 ± 0.0014
SLPGPRTELPLA | 0.644 ± 0.034
PASEVLFMEFVT | 0.753 ± 0.026
LRPLSPPTLLPA | 0.664 ± 0.022
RHPSVLPLSILL | 0.653 ± 0.054
TTGKEAQYEARK | 0.664 ± 0.071
KKRKEKRKKNSI | 0.647 ± 0.016
EELGRGLESLGL | 0.699 ± 0.076
YNGVGGLKPEPC | 0.658 ± 0.049
PVGEGAGELGGG | 0.642 ± 0.034
KKRRTIKSQSKV | 0.6825 ± 0.0049
RIINRIDNKIEK | 0.672 ± 0.0039
SGVIRLRAVELF | 0.5726 ± 0.0017
RHGVQMAGLKRR | 0.679 ± 0.019
VVVSGGGQGFWL | 0.757 ± 0.064
LFPAIWPRVLSW | 0.566 ± 0.02
VRHSLFPCPSPT | 0.714 ± 0.035
FQFSFLRFGGCA | 0.651 ± 0.048
VGAGGLWCGGGY | 0.83 ± 0.031
DERLNGWERGDV | 0.698 ± 0.07
RKNNTVIKQIKR | 0.656 ± 0.054

Sequence | protein stability index
GFCTVVGGVVIG | 0.7202 ± 0.0016
LAFFAPCLLPPL | 0.557 ± 0.048
LWPYSRYSFSPP | 0.726 ± 0.02
GVGSCVILRLRN | 0.557 ± 0.02
RIVMSSDHTFQG | 0.635 ± 0.0072
AGPKYHLGIPAP | 0.678 ± 0.014
GGSCGFGLGAGG | 0.665 ± 0.041
VCGQRLKDVGVG | 0.499 ± 0.037
PVAPPQLSPPSS | 0.6704 ± 0.0048
LGGSNRPCVRSI | 0.697 ± 0.011
TPFLRGTDKTTP | 0.662 ± 0.068
LGVFVAFGGFGV | 0.605 ± 0.048
VPPASLVCLTSP | 0.667 ± 0.0015
PSPMVPHVPMST | 0.74579 ± 0.00057
DITKNGKSKMLK | 0.664 ± 0.051
HPTAILLVPLLL | 0.597 ± 0.029
VGGGGLSGGAER | 0.678 ± 0.0093
PPSPPLPPLPPP | 0.653 ± 0.0084
LKLHDSNESASR | 0.651 ± 0.03
IRKPRRHRTVET | 0.73 ± 0.057
RCKYLPSSRGMI | 0.675 ± 0.011
TYFIVGGCGFFG | 0.643 ± 0.06
STFYSALRVGTR | 0.668 ± 0.019
SRKLRKSLFKKS | 0.689 ± 0.045
GRSGACGWVGFG | 0.7238 ± 0.0013
GWGWGSMDLRDR | 0.6919 ± 0.0024

Sequence | protein stability index
LGGGGWGGACGE | 0.66 ± 0.02
PTQSPSTIPPSP | 0.763 ± 0.11
RLVGCWGRVKFE | 0.6927 ± 0.003
LAGRSVVLLWMG | 0.602 ± 0.021
SPPPSSPPAPPR | 0.717 ± 0.11
HALFPRAPSPPW | 0.7513 ± 0.0055
LVQCSAISARRF | 0.735 ± 0.026
APGSPLDPLTMF | 0.6535 ± 0.0041
PFPFSPPHSLVS | 0.743 ± 0.027
LCGSSVSHLVLP | 0.7125 ± 0.0054
KGKKRKNEKNKR | 0.691 ± 0.0089
GAQSRQMRSLAQ | 0.65 ± 0.11
PYWPLLLTNCQL | 0.734 ± 0.063
FLLSVVQGAVHQ | 0.6 ± 0.036
RFRGYWSWGMTL | 0.777 ± 0.13
HQCVIVNFEKYD | 0.669 ± 0.038
VFCPSPGPLAFA | 0.673 ± 0.072
GPCRVSLSFFFF | 0.577 ± 0.06
QTRRQKDAEHPR | 0.714 ± 0.023
ELRCSRPIHSDF | 0.681 ± 0.013
ISCSDNMLLLFD | 0.697 ± 0.01
SPARLRHSLSLP | 0.723 ± 0.014
GSSVGVAGLRGR | 0.656 ± 0.029
LSHIPDRQRLKP | 0.715 ± 0.062
VFKNRWLGGEKV | 0.69 ± 0.012
YRVSWSFLGCFQ | 0.62 ± 0.071

Sequence | protein stability index
GVGGPLRPGPCQ | 0.758 ± 0.24
IPRHLGTRVVPI | 0.682 ± 0.072
PMNVSDPRKVGR | 0.556 ± 0.037
RKGRETGTKERE | 0.671 ± 0.036
ARNNVRKTEQQC | 0.717 ± 0.11
VKVAFSIASRVD | 0.79 ± 0.0028
WGSLVRLFGLWR | 0.6541 ± 0.0015
ENNKRRTKRHKE | 0.62791 ± 0.00025
QKKKDKKKQNRT | 0.666 ± 0.029
TSHMKASANDTL | 0.687 ± 0.11
VGRIGNWRFGAG | 0.695 ± 0.0084
TQSEHRTIPKSG | 0.663 ± 0.0089
VAGWGAGREAAY | 0.657 ± 0.026
ISFGSVFSGFFH | 0.7354 ± 0.0014
PRSMLIFPSFPF | 0.825 ± 0.042
LRGVDYEQMSDP | 0.667 ± 0.11
RPRSPRSLPPPP | 0.541 ± 0.043
LPLIPTSSRRHS | 0.682 ± 0.024
ERKGIIIGHSHS | 0.71 ± 0.037
IFPFKDDVPFVS | 0.684 ± 0.0015
MDDIAAYTGSCT | 0.661 ± 0.032
RPQHSPSVLVSY | 0.5884 ± 0.005
AGGGVKLWWGRE | 0.657 ± 0.054
